Kd data for one molecule are collected here from patent publication US20040096444A1 (DUKE UNIVERSITY, published 2004).

The term Kd denotes the equilibrium constant for the complex coming apart. Low readings indicate tighter binding, high ones weaker binding.

The assay deals with T1, VDAC1 on the surface of human umbilical vein endothelial cells (HUVEC) (human, UniProt P21796 2-283).
T1 construct: Endogenous protein on primary HUVEC; The assays were done on whole cells; also called K5 receptor on HUVEC; plasma membrane VDAC1
The assay is described as follows: 125I-K5 saturation binding to HUVEC monolayers at 4 C, fit to the Langmuir isotherm.

T1 sequence (P21796 2-283): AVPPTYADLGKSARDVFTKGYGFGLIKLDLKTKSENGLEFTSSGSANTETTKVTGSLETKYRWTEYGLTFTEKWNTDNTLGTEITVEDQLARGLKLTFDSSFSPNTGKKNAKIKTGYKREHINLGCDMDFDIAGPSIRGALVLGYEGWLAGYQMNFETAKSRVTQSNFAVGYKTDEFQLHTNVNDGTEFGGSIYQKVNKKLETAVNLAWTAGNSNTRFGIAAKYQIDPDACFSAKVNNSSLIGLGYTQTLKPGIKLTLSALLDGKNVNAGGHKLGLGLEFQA
Method: Ligand binding analysis. Cells were grown in tissue culture plates until the monolayers were confluent. The cells were washed in HBSS. […] Wells were stripped from the plates and radioactivity was determined. Molecules of ligand bound were calculated after substraction of nonspecific binding measured in the presence of 50 mM p-amino-benzamidine.

B1: plasminogen kringle 5 (K5), purified from pepsin digestion of human mini-Pg (ligand, UniProt P00747 481-560, looked up)
chain: CMFGNGKGYRGKRATTVTGTPCQDWAAQEPHRHSIFTPETNPRAGLEKNYCRNPDGDVGGPWCYTTNPRKLYDYCDVPQC
modifications: 125I-labeled Bolton Hunter reagent (labelled form used in the binding assays)
notes: domain: kringle 5; Proteolytic fragment (elastase, then pepsin) of purified human Pg 2; also called Pg kringle 5; angiostatin kringle-5
Regarding B1, the Kd was 28 nM.
